Test results taken from patent US20040132025A1, “Ampk-related serine/threonine kinase, designated snark” (priority 2001, published 2004).
Marks after values point to notes of the source that are not given here.

Legend:
SNARK [1] = target: T1, SNARK (Rattus norvegicus, UniProt Q66HE5); assay: SNARK phosphotransferase activity (SAMS peptide) assayed in the presence of AMP, wildtype and SNARK-transfected BHK cell lysates; type: biochemical, hamster; set-up: The complete open reading frame of rat SNARK was subcloned into the pcDNA3.1 vector; expressed in transfected cells; details: 200 μM AMP in assay; SNARK-transfected BHK cell lysates
T1 sequence (Q66HE5 1-630): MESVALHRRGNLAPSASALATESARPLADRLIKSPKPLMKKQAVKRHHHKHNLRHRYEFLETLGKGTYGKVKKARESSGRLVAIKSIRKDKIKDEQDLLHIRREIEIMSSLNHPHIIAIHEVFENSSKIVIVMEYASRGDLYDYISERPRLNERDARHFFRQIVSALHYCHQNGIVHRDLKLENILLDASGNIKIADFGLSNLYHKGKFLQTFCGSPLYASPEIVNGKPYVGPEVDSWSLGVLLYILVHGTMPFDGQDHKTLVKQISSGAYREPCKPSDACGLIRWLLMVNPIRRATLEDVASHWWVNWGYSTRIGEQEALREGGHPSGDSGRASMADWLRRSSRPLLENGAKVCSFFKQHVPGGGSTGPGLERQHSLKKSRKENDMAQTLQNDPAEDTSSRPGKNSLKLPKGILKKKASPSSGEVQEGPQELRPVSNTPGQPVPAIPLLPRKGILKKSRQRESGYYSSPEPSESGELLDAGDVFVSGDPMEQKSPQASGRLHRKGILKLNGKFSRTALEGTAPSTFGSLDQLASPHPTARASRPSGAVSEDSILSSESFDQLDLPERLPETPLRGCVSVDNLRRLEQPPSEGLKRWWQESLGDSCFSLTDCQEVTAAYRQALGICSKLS
Procedure: (§1) FIG. 7. […] SNARK protein was immunoprecipitated from 500 μg of cell lysate from wildtype BHK, BHK−1, BHK+1 and BHK+11 cells. Kinase assays were performed using the 200 μM SAMS peptide as substrate in kinase reaction cocktail. NRKC cells (stippled box); wildtype BHK cells (solid box); BHK+1 and +11 cells (hatched boxes). Results are the means±S.E.M. for 2 experiments (n=5 each time). For comparative purposes, AMPKα2 activity was assayed in these cell lines and found to be equivalent to, 4-fold lower and 1.5-fold lower than the SNARK activity levels measured under basal growth conditions in wildtype BHK, SNARK-transfected BHK and NRKC cell lines, respectively (data not shown).
(§2) Kinase Assay—Following immunoprecipitation with antiserum, SNARK activity was analysed by performing kinase assays with immunoprecipitated SNARK and a variety of substrates (MBP, B-casein, whole histone fraction, protamine sulphate and a synthetic peptide substrate (HMRSAMSGLHLVKRR, ‘SAMS’ peptide). Kinase assays with the SAMS peptide were performed essentially as described, except that the three washes were done with IP buffer containing 500 mM NaCl followed by a final wash in kinase assay buffer. For kinase assays performed to determine substrate specificity (with substrates other than SAMS peptide), reactions included 30 ug of substrate, 500 nM PKA inhibitor peptide and 1 uM PKC inhibitor peptide. […]

SNARK [2] = assay: as above; type: biochemical, hamster; details: 200 μM AMP in assay; wildtype BHK cell lysates
Procedure: as §1, §2

SNARK [3] = target: T1, SNARK; assay: SNARK phosphotransferase activity (SAMS peptide) assayed in the presence of AMP, NRKC cell lysates; type: biochemical; set-up: In the assays performed with SNARK immunoprecipitated from NRKC cell lysates; endogenous in cells; host or cells: NRKC (neonatal rat keratinocytes); details: 200 μM AMP in assay; NRKC cells; p<0.001
Procedure: as §1, §2

SNARK [4] = target: T1, SNARK; assay: Kinase assay of immunoprecipitated SNARK with candidate substrates (substrate specificity); type: biochemical; set-up: In the assays performed with SNARK immunoprecipitated from NRKC cell lysates; endogenous in cells; host or cells: NRKC (neonatal rat keratinocytes); details: for Activity (phosphotransferase activity of SNARK towards substrate): SNARK immunoprecipitated from 500 ug NRKC cell lysate, SAMS peptide 250 uM or 30 ug of other substrate, 1 μM PKC inhibitor and 500 nM PKA inhibitor peptides, 30 C, means±S.E.M.; for Ability of SNARK to phosphorylate the substrate: SNARK immunoprecipitated from NRKC cell lysates, PKA and PKC peptide inhibitors included
Procedure: Kinase Assay—Following immunoprecipitation with antiserum, SNARK activity was analysed by performing kinase assays with immunoprecipitated SNARK and a variety of substrates (MBP, B-casein, whole histone fraction, protamine sulphate and a synthetic peptide substrate (HMRSAMSGLHLVKRR, ‘SAMS’ peptide). Kinase assays with the SAMS peptide were performed essentially as described, except that the three washes were done with IP buffer containing 500 mM NaCl followed by a final wash in kinase assay buffer. For kinase assays performed to determine substrate specificity (with substrates other than SAMS peptide), reactions included 30 ug of substrate, 500 nM PKA inhibitor peptide and 1 uM PKC inhibitor peptide. Activities were calculated as fmol of phosphate incorporated into the SAMS peptide/min per milligram of lysate subjected to immunoprecipitation, minus the activity obtained with a blank reaction (cell lysate and Protein A-Sepharose only).
Peptide inhibitors of PKA and PKC were included in these reactions to eliminate phosphorylation of these substrates by these enzymes.
Immunoprecipitation of 500 ug of NRKC cell lysate with SNARK antiserum was performed as described above. Phosphotransferase activity was assayed with either SAMS peptide (250 uM) or 30 ug of dephosphorylated MBP, dephosphorylated β-casein, whole histone fraction or protamine sulfate in the presence of 1 μM PKC inhibitor and 500 nM PKA inhibitor peptides. Phosphortransferase activity is expressed in fmol of phosphate transferred to the SAMS peptide/min at 30 C per mg of protein subjected to immunoprecipitation. Results are means±S.E.M. for two individual assays with at least eight samples per group. *p<0.01 compared with all other substrates.

[5] = target: dephosphorylated B-casein; assay: cell-based or functional assay
protamine sulfate = assay: cell-based or functional assay
[6] = target: dephosphorylated myelin basic protein; assay: cell-based or functional assay
SAMS peptide = assay: cell-based or functional assay
whole histone fraction = assay: cell-based or functional assay
AMPKα1 = target: T2, AMPKα1 (Rattus norvegicus, UniProt P54645+P80385); assay: AMPKα1 activity in NRKC cells treated with AICAR; type: cell-based; details: treatment with AICAR, data not shown
T2 construct: endogenous in cells; host or cells: NRKC (neonatal rat keratinocytes)
T2 sequence (P54645 whole entry): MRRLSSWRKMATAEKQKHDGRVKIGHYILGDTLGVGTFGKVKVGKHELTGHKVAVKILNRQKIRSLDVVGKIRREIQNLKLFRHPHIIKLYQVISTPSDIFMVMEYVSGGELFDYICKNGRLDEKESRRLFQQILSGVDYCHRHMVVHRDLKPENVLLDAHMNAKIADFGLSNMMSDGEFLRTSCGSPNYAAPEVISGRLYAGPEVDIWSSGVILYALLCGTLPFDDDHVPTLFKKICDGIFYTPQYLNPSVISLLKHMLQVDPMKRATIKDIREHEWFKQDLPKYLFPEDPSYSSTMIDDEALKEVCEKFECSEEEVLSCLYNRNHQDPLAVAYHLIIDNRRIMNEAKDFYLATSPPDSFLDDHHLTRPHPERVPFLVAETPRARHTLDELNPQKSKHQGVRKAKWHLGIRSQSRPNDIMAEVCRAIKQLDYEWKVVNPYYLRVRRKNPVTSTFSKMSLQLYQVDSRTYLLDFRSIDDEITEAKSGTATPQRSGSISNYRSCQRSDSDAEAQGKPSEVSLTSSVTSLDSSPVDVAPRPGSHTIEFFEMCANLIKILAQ
T2 sequence (P80386 whole entry partner): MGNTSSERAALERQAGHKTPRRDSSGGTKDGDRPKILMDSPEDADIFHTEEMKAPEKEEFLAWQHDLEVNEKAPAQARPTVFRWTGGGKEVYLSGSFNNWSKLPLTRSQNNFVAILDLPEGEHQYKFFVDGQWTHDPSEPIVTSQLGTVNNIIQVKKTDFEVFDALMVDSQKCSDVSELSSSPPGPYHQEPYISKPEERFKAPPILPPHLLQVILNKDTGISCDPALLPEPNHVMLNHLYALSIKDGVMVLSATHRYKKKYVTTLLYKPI
T2 sequence (P80385 whole entry): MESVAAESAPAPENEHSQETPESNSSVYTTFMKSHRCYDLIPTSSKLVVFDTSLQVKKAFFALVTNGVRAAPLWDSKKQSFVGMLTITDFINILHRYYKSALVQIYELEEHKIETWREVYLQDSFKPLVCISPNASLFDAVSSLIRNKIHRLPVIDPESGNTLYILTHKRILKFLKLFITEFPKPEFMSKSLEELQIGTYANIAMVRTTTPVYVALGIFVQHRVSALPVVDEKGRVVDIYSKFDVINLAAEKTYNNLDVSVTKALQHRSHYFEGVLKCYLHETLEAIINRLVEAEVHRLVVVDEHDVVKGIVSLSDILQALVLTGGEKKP

SNARK [7] = target: T1, SNARK; assay: Activation of SNARK in NRKC cells using AICAR; type: cell-based; set-up: In the assays performed with SNARK immunoprecipitated from NRKC cell lysates; endogenous in cells; host or cells: NRKC (neonatal rat keratinocytes); details: 1 mM AICAR for one hour, kinase assay with 200 μM AMP and SAMS peptide, p<0.05
Procedure: FIG. 8.(A) Activation of SNARK in NRKC cells using AICAR. NRKC cells were treated with 0, 0.5 mM, 1 mM or 2 mM AICAR for 1 hour. SNARK protein was immunoprecipitated from 500 μg of cell lysates with SNARK antiserum and kinase assays were performed in the presence of 200 μM AMP using the SAMS peptide. Solid box represents control (0 mM AICAR) samples and hatched boxes represent AICAR-treated samples. Data is expressed as phosphotransferase activity relative to control values (control=1) and represents the means±S.E.M. for 2 individual experiments with at least 10 samples per group per experiment. *p<0.06, relative to control values. […] Results are expressed as phosphotransferase activity relative to control values (control=1) and represents the mean±S.E.M. from 2 individual experiments with at least 10 samples per group per experiment. *p<0.03, relative to control values. […]
The adenosine analogue, 5-aminoimidizole-4-carboxamide riboside (AICAR), provides a means of stimulating AMPK activity in whole cells, even in the presence of high glucose concentrations, and mimics the effects of AMP on the AMPK cascade. Intriguingly, SNARK activity was induced 2.8-fold (p<0.05) in NRKC cells when treated with 1 mM AICAR for one hour (FIG. 8A, hatched box), as compared to SNARK activity measured in untreated NRKC cells (solid box).

AMPK-α2 = target: T3, AMPK-α2 (Rattus norvegicus, UniProt P80385+Q09137); assay: AMPK-α2 activity in NRKC cells treated with AICAR; type: cell-based; details: ImM AICAR, same assay conditions, data not shown
T3 construct: increased at least 2-fold upon treatment with ImM AICAR in NRKC cells; endogenous in cells; host or cells: NRKC (neonatal rat keratinocytes)
T3 sequence (Q09137 whole entry): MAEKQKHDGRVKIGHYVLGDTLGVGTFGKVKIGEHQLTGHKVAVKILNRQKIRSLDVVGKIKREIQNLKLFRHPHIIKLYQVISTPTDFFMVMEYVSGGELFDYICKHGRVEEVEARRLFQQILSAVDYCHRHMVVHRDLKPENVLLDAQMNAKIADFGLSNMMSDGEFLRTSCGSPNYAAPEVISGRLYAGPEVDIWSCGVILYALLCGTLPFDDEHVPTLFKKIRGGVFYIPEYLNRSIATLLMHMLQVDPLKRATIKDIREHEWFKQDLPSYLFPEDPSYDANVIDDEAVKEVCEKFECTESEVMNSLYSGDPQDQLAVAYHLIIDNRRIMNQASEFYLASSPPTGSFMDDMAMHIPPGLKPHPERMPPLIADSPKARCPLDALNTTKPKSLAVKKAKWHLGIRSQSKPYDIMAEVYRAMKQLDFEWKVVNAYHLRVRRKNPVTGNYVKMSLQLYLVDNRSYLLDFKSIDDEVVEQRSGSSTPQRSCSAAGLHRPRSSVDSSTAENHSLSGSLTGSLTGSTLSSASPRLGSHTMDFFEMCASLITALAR
T3 sequence (P80386 whole entry partner): as the sequence (P80386 whole entry partner) above
T3 sequence (P80385 whole entry): as the sequence (P80385 whole entry) above

## Nc1ncnc2c1ncn2[C@@H]1O[C@H](COP(=O)(O)O)[C@@H](O)[C@H]1O [AMP]
SNARK [1]
  Change in SNARK phosphotransferase activity: no significant change
SNARK [2]
  Change in SNARK phosphotransferase activity: no significant change
SNARK [3]
  Increase in SNARK phosphotransferase activity: 1.7 fold

## Protamine sulfate
SNARK [4]
  Activity (phosphotransferase activity of SNARK towards substrate): 7 ± 2 fmol/min per mg
  Ability of SNARK to phosphorylate the substrate: minimal

## rat SNARK protein (enzyme)
[5]
  Activity (fmol/min per mg); phosphotransferase activity of SNARK immunoprecipitated from NRKC cell lysate (fmol/min per mg): 37
Protamine sulfate
  Activity (fmol/min per mg); phosphotransferase activity of SNARK immunoprecipitated from NRKC cell lysate (fmol/min per mg): 7
[6]
  Activity (fmol/min per mg); phosphotransferase activity of SNARK immunoprecipitated from NRKC cell lysate (fmol/min per mg): 91
SAMS peptide
  Activity (fmol/min per mg); phosphotransferase activity of SNARK immunoprecipitated from NRKC cell lysate (fmol/min per mg): 145
Whole histone fraction
  Activity (fmol/min per mg); phosphotransferase activity of SNARK immunoprecipitated from NRKC cell lysate (fmol/min per mg): 19

## HMRSAMSGLHLVKRR [SAMS peptide, synthetic peptide AMPK substrate corresponding to the site in rat acetyl-CoA carboxylase phosphorylated by AMPK]
SNARK [4]
  Activity (phosphotransferase activity of SNARK towards substrate): 145 ± 46* fmol/min per mg
  Ability of SNARK to phosphorylate the substrate: able to phosphorylate

## NC(=O)c1ncn([C@@H]2O[C@H](CO)[C@@H](O)[C@H]2O)c1N [AICAR, 5-aminoimidizole-4-carboxamide riboside]
AMPKα1
  Stimulation of AMPKα1 activity: not stimulated
SNARK [7]
  Induction of SNARK activity relative to untreated cells: 2.8 fold
AMPK-α2
  Increase in AMPK-α2 activity over basal: at least 2 fold
